The record followed here is PMC3430610, “Brassica napus PHR1 Gene Encoding a MYB-Like Protein Functions in Response to Phosphate Starvation”.

This series concerns the target MBP-BnPHR1 (Brassica napus, UniProt W5QL02 1-417). In words: EMSA; EMSA: 750 mM KCl, 0.5 mM DTT, 0.5 mM EDTA, 50 mM Tris pH 7.4 (so in the source), room temperature, 20 min; native PAGE, SYBR Green then SYPRO Ruby stain. Particulars: protein: recombinant; tags: N-terminal MBP (pMAL-c2); chain copies: 2; label: none (SYBR Green post-stain); 5' overhang 4 nt on both strands (AATT and CCGG), 41 bp duplex. (In general: A gel shift assay detects complexes by their altered migration in electrophoresis.)

Chain of MBP-BnPHR1 (W5QL02 entry or part of it): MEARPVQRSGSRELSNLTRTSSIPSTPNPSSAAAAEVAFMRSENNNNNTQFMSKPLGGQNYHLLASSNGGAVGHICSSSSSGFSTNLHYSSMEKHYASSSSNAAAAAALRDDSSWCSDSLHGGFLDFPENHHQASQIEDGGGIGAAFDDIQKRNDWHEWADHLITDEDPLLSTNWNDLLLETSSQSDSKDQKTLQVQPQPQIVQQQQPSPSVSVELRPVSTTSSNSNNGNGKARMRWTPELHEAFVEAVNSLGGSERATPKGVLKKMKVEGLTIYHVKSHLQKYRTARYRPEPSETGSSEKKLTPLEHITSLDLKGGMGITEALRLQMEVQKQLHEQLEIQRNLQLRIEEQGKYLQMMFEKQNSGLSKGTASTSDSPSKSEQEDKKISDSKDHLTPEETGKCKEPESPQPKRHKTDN

B1: BnPT2 promoter probe (BnPT2p1/p2) (dsDNA)
DNA 1: AATTGGAGGGGAATATACCGAAACATTGTTGTATATTCATGTAAG
DNA 2: CCGGCTTACATGAATATACAACAATGTTTCGGTATATTCCCCTCC
B1: the binding result is given as “binds”.
